From the supplement of paper PMC9170038

System: MS2 coat protein
Test: apparent KD of MS2 coat protein; designed switch direction (-1 OFF switch, 1 ON switch): -1; higher = weaker reporter binding
Outline: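 Apparent KD, taken as the median over clusters for each design, was obtained by curve-fitting normalised cluster fluorescence. Designed RNA switches had been transcribed on Illumina chips by stalled E. coli RNA polymerase and titrated with SNAP-549-labelled MS2 coat protein, doubling from 0.7 or 1.5 nM to 3 µM.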

[1] = Eterna round: R95, input ligand: FMN 200 uM
[2] = Eterna round: R95, input ligand: microRNA oligo, concentration not stated
[3] = Eterna round: R95, input ligand: none
[4] = input ligand: microRNA oligo, concentration not stated

Sequence	apparent KD of MS2 coat protein [1]	apparent KD of MS2 coat protein [2]	apparent KD of MS2 coat protein [3]	apparent KD of MS2 coat protein (input ligand: FMN 200 uM)	apparent KD of MS2 coat protein (input ligand: none)	apparent KD of MS2 coat protein [4]
AUUUUAACAUAGGAUAUCGAAUUUAUUAUUUAACGAGAAGGAUGAACAUGAGGAUCACCCAUGUGGUAUCAUGA [Mat - Exclusion 6 - JL Mod - D21] (puzzle: Exclusion 6)	0.0728 µM	0.0406 µM	0.0459 µM	–	–	–
CAAAAGGAAGGAUAUGAUAAGCAGGACAUGAGGAUCACCCAUGUGACUGCCUCGUGGACAUCAGAAGGUCCAGGAC [Erqureorle] (puzzle: Exclusion 5)	0.0432 µM	0.0172 µM	0.0138 µM	–	–	–
CAAACCAGAGGAUAUGCGCAUAGAUCAGACUUUGUUUCUGAACAUGAGGAUCACCCAUGUAGAAGGCUGUAAAA [Ex2 #83] (Eterna round: R97, puzzle: Exclusion 2)	–	–	–	0.0281 µM	0.0297 µM	–
CAACCACGUGCAGGAUAUGCGAAGUGAUUCGGUGGUACCACAGCGUAAACAUGAGGAUCACCCAUGUAGAAGGGCAUGAGGGCU [Eternabot solution 16] (Eterna round: R96, puzzle: Exclusion NG 2)	–	–	–	0.352 µM	0.123 µM	0.119 µM
CAAGCUUUGCGAGGAUAUGAUGGCCUAUAUGCCUCAGAAGGCGCAGAUACUUGAGGAUCACCCAAGUGAUGCAAAUACGAAAAU [Mutated MS2 EX1.17] (Eterna round: R96, puzzle: Exclusion NG 1)	–	–	–	0.0713 µM	0.02 µM	0.0174 µM
CAAUGACAUGAGGAUCACCCAUGUGAGGAUAUGGAGCGAGACCGCGCGGUCGCGUACACCAGAAGGCGCAGGCG [1st #66] (Eterna round: R97, puzzle: Exclusion 1)	–	–	–	0.0893 µM	0.0379 µM	–
CAAUGUGCUGAGGAUAUCUGCAGGUUGGGCCUGGGAGAAGGCGGCACAUGAGGAUCACCCAUGUGACCGAAAUA [EX6 A.17] (Eterna round: R97, puzzle: Exclusion 6)	–	–	–	0.0785 µM	0.0393 µM	–
CAAUUCUGAGGAUAUCGAUUUUUGUACAUGAGGAUCACCCAUGUCCUUUUUAUUUAAUCCCGAGAAGGCAGUGUAU [JR_E5_Sub097] (puzzle: Exclusion 5)	–	0.0238 µM	–	–	–	–
CACAAGCUUUUUUGAUGCAUUUUAGUGGGUGUGGGUUGGACAUGAGGAUCACCCAUGUUUAUGAAGCUCGAUCUUUU [JR_SV3TOV2_Sub081] (puzzle: Sensor v3, turn-off variant 2)	0.0927 µM	0.17 µM	0.124 µM	–	–	–
CACAAGCUUUUUUGUUGCUUUUUAGUUGGUGUGUGAUUUACAUGAGGAUCACCCAUGUUAUUGAUGCUCGAUCUUUU [JR_SV3TOV2_Sub082] (puzzle: Sensor v3, turn-off variant 2)	0.0711 µM	0.143 µM	0.0973 µM	–	–	–
CACAGACAUGAGGAUCACCCAUGUUAGGAUAUGGAUAGCCUGCCAAGAAUAGGCGCCUCCAGAAGGAACUGGGA [Eternabot (Original) Solution 36] (Eterna round: R97, puzzle: Exclusion 1)	–	–	–	0.141 µM	0.0611 µM	–
CACCCUGAUGUCAGGAUAUGCGCGUCGCGCCUCGAGCAGAAGGGACAUGAGGAUCACCCAUGUUGUCUCUUGGG [Orisvedixe] (puzzle: Brourd's mod of Exclusion 4)	–	0.0445 µM	–	–	–	–
CACCGGGUAGGAUAUACUUGAGGAUCACCCAAGUGGGAACCUACUCGGUGGUCCUUAAGUAGAAGGACCAACGG [Ex 2] (Eterna round: R97, puzzle: Exclusion 3)	–	–	–	0.0115 µM	0.0119 µM	–
CACCGUAACAGAGGAUAUCAAACAUGAGGAUCACCCAUGUAAUAAAUGAGAAUUUCGAAUGUACCUGAGAAGGCUGAAACCGGC [Ostricism 83 - Jieux - Exclusion NG 2] (Eterna round: R96, puzzle: Exclusion NG 2)	–	–	–	–	–	0.0259 µM
CACCGUUAGGGAGGAUAUCGUACAUGAGGAUCACCCAUGUAAUAAAUGAGAAUUUCGGAUGUAUGCGAGAAGGCCCAAAUCGGC [Ostracism 42 - Jieux - Exclusion NG 2] (Eterna round: R96, puzzle: Exclusion NG 2)	–	–	–	0.0368 µM	0.0484 µM	0.0358 µM
CACCGUUAGUGAGGAUAUCGUACAUGAGGAUCACCCAUGUAAUAAAUGAGAAUUUCGGAUGUAUGCGAGAAGGCACAAAUCGGC [Ostracism 40 - Jieux - Exclusion NG 2] (Eterna round: R96, puzzle: Exclusion NG 2)	–	–	–	0.0371 µM	0.0452 µM	0.0347 µM
CACCUCGUAGCAGGAUAUUAGAGCUUCCGCAAAUGAGAAGGGCUACGAAACACUUGAGGAUCACCCAAGUACCGUGGUCCUCUA [Mutated MS2 EX1.11] (Eterna round: R96, puzzle: Exclusion NG 1)	–	–	–	0.0197 µM	0.0223 µM	0.014 µM
CACGUCUGAGGAUAUCGUUUUUUGUACAUGAGGAUCACCCAUGUCCAAUUUUGUAUAUUACGAGAAGGCAGUGGAA [JR_E5_Sub090] (puzzle: Exclusion 5)	–	0.0123 µM	–	–	–	–
CACUUGGUAGGAUAUGAAGGGAGGAACAUGAGGAUCACCCAUGUCCUGGAAUCCAGUCCGUCAGAAGGACCUGAGC [Eternabot (L1) Solution 44] (Eterna round: R97, puzzle: Exclusion 5)	–	–	–	0.0244 µM	0.0216 µM	–
CAGAAACAUGAGGAUCACCCAUGUGAGGAUAUGAAAAAGAAAAGAAAAGAAAGAAGAAUCAGAAGGCACAAAGA [salish99-ex1_r3_085] (puzzle: Exclusion 1)	0.0313 µM	0.0239 µM	0.0318 µM	–	–	–
CAGAAGCAAGGAUAUACAACGGGCCACAGAGCGAGAGGGCAACAUGAGGAUCACCCAUGUAGAAGGUGCGUAAC [Timaina] (puzzle: Exclusion 2)	0.0475 µM	0.0974 µM	0.0744 µM	–	–	–
CAGCCUCUUGUGAGGAUAUUCUGCUAAGCGAGGCGGAAGAAGGUACAUGAGGAUCACCCAUGUUGGCGGAAUAA [Eternabot (Original) Solution 21] (Eterna round: R97, puzzle: Brourd's mod of Exclusion 4)	–	–	–	0.167 µM	0.0376 µM	–
CAGCUGAAUGUGAGGAUAUGUCGAGCUUCGGCUCGAUAGAAGGCACAUGAGGAUCACCCAUGUCUCAACAGCUG [BmEx4/2-C1] (Eterna round: R97, puzzle: Brourd's mod of Exclusion 4)	–	–	–	0.166 µM	0.0351 µM	–
